Numbering of substitutions follows the chain as printed. In names and notes the source's numbering stands.
B1: selenomethionine-labelled methylated SsoCas6 (enzyme, Sulfolobus solfataricus)
chain: PLIFKIGYNVIPLQDVILPTPSSKVLKYLIQSGKLLPSLNNLITSRDKYKPIFISHLGLNQRRIFQTNGNLKTISRGSKLSSTIAFSTQVNVLPELDEGVFETIYGKFHITIESVEIVEVEKLKEEVEKHMNDNIRVRFISPTLLSSKVLLPPSLSERYKRVNAGYSTLPSVGLIVAYAYNVYCNLIGKKEVEVRAFKFGVISNALSRIIGYDLHPVTIVIGEDSKGNLRKARGVMGWIEFDIPDEKLKRRALRYLLASSYLGIGRSRGIGFGEIKLEFIKREENH
modifications: (L)-selenomethionine derivative; surface lysine residues reductively methylated
notes: Cas6 paralogue Sso1437 of Sulfolobus solfataricus; residues 43-50 and 90-93 disordered in the crystal; Same construct as m1, labelled with selenomethionine and methylated for crystallography; also called (L)-selenomethionine derivative of SsoCas6; not shown: His6, N-terminal, cleaved
B2: Sulfolobus solfataricus Cas6 (Sso1437), wild type (enzyme)
chain: B1 chain
notes: Cas6 paralogue Sso1437 of Sulfolobus solfataricus, gene amplified by PCR from genomic DNA; expected molecular mass of the monomer 33 kDa; Cloned into pET151-TOPO; also called SsoCas6; wild-type (WT) enzyme; source: E. coli C43(DE3), purified (Ni-NTA, TEV cleavage, Superdex 75 gel filtration); not shown: His6, N-terminal, cleaved
B3: SsoCas6 K28H variant (enzyme, Sulfolobus solfataricus)
chain: B1 chain with K27H
notes: Cas6 paralogue Sso1437 of Sulfolobus solfataricus with K28H; Used in the calibrated gel filtration in place of the wild type; source: E. coli, purified according to the same protocol as the wild type; not shown: His6, N-terminal, cleaved

How the values were obtained:
[1] = molecular target: the molecule itself; test: crystal structure; selenomethionine-labelled methylated protein; 0.05 M bicine pH 9.1, 28% PEG 3350; SAD, 2.8 Å; four monomers in the asymmetric unit; interface analysed with PDBePISA
[2] = molecular target: the molecule itself; test: SEC; calibrated gel filtration, HiLoad 26/600 Superdex 200, 20 mM Tris/HCl pH 7.5, 1 M NaCl; calibrated with Bio-Rad standards

Protein	binding result [1]	stoichiometry N [2]
B1	binds	–
B2	–	2
B3	–	2

Source: publication PMC3652601, “Structure of a dimeric crenarchaeal Cas6 enzyme with an atypical active site for CRISPR RNA processing” (Biochemical Journal, 2013)
